# In patent publication US20230174655A1 (published 2023):
# T1: FcγRIIa type R extracellular domain with C-terminal His tag (human, UniProt P12318 34-217)
# T1 chain: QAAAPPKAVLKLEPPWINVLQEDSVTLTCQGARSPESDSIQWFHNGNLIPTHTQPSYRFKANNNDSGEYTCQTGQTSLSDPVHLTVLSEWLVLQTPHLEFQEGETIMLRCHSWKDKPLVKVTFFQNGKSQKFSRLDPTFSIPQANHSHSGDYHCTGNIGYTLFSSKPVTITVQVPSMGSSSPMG
# Target: T1, FcγRIIa type R extracellular domain …
# Experiment: SPR (Biacore), antibody captured, FcgR analyte
# Excerpt: In the table, SEQ ID NO refers to the SEQ ID NO of the H chain of the evaluated variant, and alteration refers to the alteration introduced into IL6R-B3 (SEQ ID NO: 40). […] Furthermore, KD(IIaR)/KD(IIb) and KD(IIaH)/KD(IIb) in the table respectively represent the value obtained by dividing the KD value of each variant for FcγRIIaR by the KD value of each variant for FcγRIIb, and the value obtained by dividing the KD value of each variant for FcγRIIaH by the KD value of each variant for FcγRIIb. KD(IIb) of the parent polypeptide/KD(IIb) of the altered polypeptide refers to the value obtained by dividing the KD value of the parent polypeptide for FcγRIIb by the KD value of each variant for FcγRIIb.
# Kinetic analyses for calculating the KD values of each altered antibody for FcγR were performed according to the following method. First, antibodies of interest were captured onto the above-mentioned sensor chips, and an Fcγ receptor diluted with the running buffer was allowed to interact. The Biacore™ Evaluation Software was used to globally fit the measured results to the obtained sensorgram using the 1:1 Langmuir binding model, and the association rate constant ka (L/mol/s) and the dissociation rate constant kd (1/s) were calculated; and from those values the dissociation constants KD (mol/L) were calculated.
row,Binder,Kd
1,"IL6R-BF063/IL6R-L (antibody, human IgG1, kappa, alteration printed: L234Y/P236D/K326A/A330K; also called IL6R-BF089/IL6R-L; copies: 2 + 2) heavy: QVQLQESGPGLVKPSETLSLTCAVSGHSISHDHAWSWVRQPPGEGLEWIGFISYSGITNYNPSLQGRVTISRDNSKNTLYLQMNSLRAEDTAVYYCARSLARTTAMDYWGEGTLVTVSSASTKGPSVFPLAPSSKSTSGGTAALGCLVKDYFPEPVTVSWNSGALTSGVHTFPAVLQSSGLYSLSSVVTVPSSSLGTQTYICNVNHKPSNTKVDKKVEPKSCDKTHTCPPCPAPEYLGGDSVFLFPPKPKDTLMISRTPEVTCVVVDVSHEDPEVKFNWYVDGVEVHNAKTKPREEQYNSTYRVVSVLTVLHQDWLNGKEYKCKVSNAALPKPIEKTISKAKGQPREPQVYTLPPSRDELTKNQVSLTCLVKGFYPSDIAVEWESNGQPENNYKTTPPVLDSDGSFFLYSKLTVDKSRWQQGNVFSCSVMHEALHNHYTQESLSLSP light: not shown",64 nM
2,"IL6R-BF085/IL6R-L (H chain SEQ ID NO 71) (antibody, human IgG1, kappa, alteration printed: G237D/P238D/A330K; also called IL6R-BF065/IL6R-L; copies: 2 + 2) heavy: QVQLQESGPGLVKPSETLSLTCAVSGHSISHDHAWSWVRQPPGEGLEWIGFISYSGITNYNPSLQGRVTISRDNSKNTLYLQMNSLRAEDTAVYYCARSLARTTAMDYWGEGTLVTVSSASTKGPSVFPLAPSSKSTSGGTAALGCLVKDYFPEPVTVSWNSGALTSGVHTFPAVLQSSGLYSLSSVVTVPSSSLGTQTYICNVNHKPSNTKVDKKVEPKSCDKTHTCPPCPAPELLGDDSVFLFPPKPKDTLMISRTPEVTCVVVDVSHEDPEVKFNWYVDGVEVHNAKTKPREEQYNSTYRVVSVLTVLHQDWLNGKEYKCKVSNKALPKPIEKTISKAKGQPREPQVYTLPPSRDELTKNQVSLTCLVKGFYPSDIAVEWESNGQPENNYKTTPPVLDSDGSFFLYSKLTVDKSRWQQGNVFSCSVMHEALHNHYTQESLSLSP light: not shown",4200 nM
3,"IL6R-BF085/IL6R-L (H chain SEQ ID NO 72) (antibody, human IgG1, kappa, alteration printed: P238D/K326A/A330K; also called IL6R-BF086/IL6R-L; copies: 2 + 2) heavy: QVQLQESGPGLVKPSETLSLTCAVSGHSISHDHAWSWVRQPPGEGLEWIGFISYSGITNYNPSLQGRVTISRDNSKNTLYLQMNSLRAEDTAVYYCARSLARTTAMDYWGEGTLVTVSSASTKGPSVFPLAPSSKSTSGGTAALGCLVKDYFPEPVTVSWNSGALTSGVHTFPAVLQSSGLYSLSSVVTVPSSSLGTQTYICNVNHKPSNTKVDKKVEPKSCDKTHTCPPCPAPELLGGDSVFLFPPKPKDTLMISRTPEVTCVVVDVSHEDPEVKFNWYVDGVEVHNAKTKPREEQYNSTYRVVSVLTVLHQDWLNGKEYKCKVSNAALPKPIEKTISKAKGQPREPQVYTLPPSRDELTKNQVSLTCLVKGFYPSDIAVEWESNGQPENNYKTTPPVLDSDGSFFLYSKLTVDKSRWQQGNVFSCSVMHEALHNHYTQESLSLSP light: not shown",97 nM

# Further lines, results first:
row,Kd,Binder
1,830 nM,"IL6R-BF147/IL6R-L (antibody, human IgG1, kappa, alteration printed: L234Y/G237D/P238D/K326A/A330K; copies: 2 + 2) heavy: QVQLQESGPGLVKPSETLSLTCAVSGHSISHDHAWSWVRQPPGEGLEWIGFISYSGITNYNPSLQGRVTISRDNSKNTLYLQMNSLRAEDTAVYYCARSLARTTAMDYWGEGTLVTVSSASTKGPSVFPLAPSSKSTSGGTAALGCLVKDYFPEPVTVSWNSGALTSGVHTFPAVLQSSGLYSLSSVVTVPSSSLGTQTYICNVNHKPSNTKVDKKVEPKSCDKTHTCPPCPAPEYLGDDSVFLFPPKPKDTLMISRTPEVTCVVVDVSHEDPEVKFNWYVDGVEVHNAKTKPREEQYNSTYRVVSVLTVLHQDWLNGKEYKCKVSNAALPKPIEKTISKAKGQPREPQVYTLPPSRDELTKNQVSLTCLVKGFYPSDIAVEWESNGQPENNYKTTPPVLDSDGSFFLYSKLTVDKSRWQQGNVFSCSVMHEALHNHYTQESLSLSP light: not shown"
2,69000 nM,"IL6R-BF176/IL6R-L (antibody, human IgG1, kappa, alteration printed: B233D/P238D/K326D/A330K; also called IL6R-BF175/IL6R-L; copies: 2 + 2) heavy: QVQLQESGPGLVKPSETLSLTCAVSGHSISHDHAWSWVRQPPGEGLEWIGFISYSGITNYNPSLQGRVTISRDNSKNTLYLQMNSLRAEDTAVYYCARSLARTTAMDYWGEGTLVTVSSASTKGPSVFPLAPSSKSTSGGTAALGCLVKDYFPEPVTVSWNSGALTSGVHTFPAVLQSSGLYSLSSVVTVPSSSLGTQTYICNVNHKPSNTKVDKKVEPKSCDKTHTCPPCPAPDLLGGDSVFLFPPKPKDTLMISRTPEVTCVVVDVSHEDPEVKFNWYVDGVEVHNAKTKPREEQYNSTYRVVSVLTVLHQDWLNGKEYKCKVSNDALPKPIEKTISKAKGQPREPQVYTLPPSRDELTKNQVSLTCLVKGFYPSDIAVEWESNGQPENNYKTTPPVLDSDGSFFLYSKLTVDKSRWQQGNVFSCSVMHEALHNHYTQESLSLSP light: not shown"
